Experimental data from the supplement of paper PMC12042874.
± gives the uncertainty stated by the source.

Experiment: amyloid nucleation score (Sup35N fusion, yeast selection) (log enrichment); library NNK2; higher = more nucleation; inactive = no reads after selection
Outline: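 The nucleation score is the DiMSum log enrichment of output over input reads, centred on the mode score of non-aggregating sequences. Only sequences with 100 or more input reads were scored, using Illumina sequencing of input and output plasmid inserts. Psi-negative yeast expressing Sup35N fused to peptides of 20 random codons were induced 24 hours with 100 μM copper sulfate and grown 7 days at 30°C on medium lacking adenine and uracil.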

In the case of FKDWNKWY, the amyloid nucleation score is reported as “inactive”.
For AVSTMGIVSIVF, the amyloid nucleation score was “inactive”.
In the case of CECVFFVQGVLRVGVLYDKF, the amyloid nucleation score is reported as “inactive”.
For SNSKVSVLIFFSAHKGECAA, the amyloid nucleation score was “inactive”.
For FINILKSSMLSVDWSLPIFN, the amyloid nucleation score was “inactive”.
In the case of RCFSTHVAQDQLFVY, the amyloid nucleation score is reported as “inactive”.
For DMYDLASRSKRELF, the amyloid nucleation score was “inactive”.
For FIAYMYPMVIWIPMRFLINQ, the amyloid nucleation score was “inactive”.
In the case of IRKIMVF, the amyloid nucleation score is reported as “inactive”.
In the case of FNWVEWLFFSMAFKLLVESR, the amyloid nucleation score is reported as “inactive”.
With TWFRSVMYPDLSHFYMF the amyloid nucleation score was “inactive”.
In the case of SWEKIGDCYIRWYLLHAGCL, the amyloid nucleation score is reported as “inactive”.
With VVFVCN the amyloid nucleation score was “inactive”.
In the case of HTDCYLWLKLYSTLGILFVF, the amyloid nucleation score is reported as “inactive”.
With FYIFPQAFRLWKSLS the amyloid nucleation score was “inactive”.

Point of comparison: RFRHGNDYGSYYFCGLLGSM, amyloid nucleation score 0.264 ± 0.46. Against it:
- SRWKGSRF — within error, 0.764 ± 0.26
- YLASNLEDKWVWDGFMLVSR — within error, 0.356 ± 0.74
- VLEDNALVRYKDRGSSGWTV — higher, 3.15 ± 0.059
- ALSSFT — lower, -1.28 ± 0.78
- RLHKTSNITTWIAHPLHNR — within error, -0.038 ± 0.65
- VNLMVYASVIIGCAVARS — higher, 7.06 ± 0.045
- CNCVARYGEVKEGIHVAFDY — within error, -0.529 ± 0.76
- VDYGQRAPTCITSHYHLNRC — within error, 0.227 ± 1.1
- ICQCGYFWF — higher, 2.8 ± 0.15
- VSSTSLNSKDQWCCCERGSP — within error, 0.619 ± 0.64
- DFQIFYFARLFRTV — within error, -0.681 ± 0.79
- VLWMVQMIRPRSS — higher, 7.02 ± 0.074
- AFSMRVGDFEIHRFSVVFRR — within error, -0.247 ± 0.53
- SMSIYKAAYSFVTGSP — higher, 7.475 ± 0.026
- LFSILAGS — within error, 0.575 ± 0.46
- VTVMTRLDFSTRSSATKPHG — higher, 5.667 ± 0.044
- CMLEIVLLEDFQG — lower, -0.632 ± 0.32
- QSAVICVGRCGNCHPPTEL — higher, 2.87 ± 0.1
- VLSDRKVY — within error, 0.117 ± 0.79
- MLLYNESNANQLKRGSGRWL — within error, 0.156 ± 0.32
- RIVVYMSLCQCL — higher, 8.609 ± 0.076
- NLKMDLLRFLHMSLRYISTR — within error, -0.36 ± 0.64
- DRNMRNLEIISVH — within error, -0.091 ± 0.23
- GNFMTECLQARICGPDGEKK — higher, 5.12 ± 0.095
- VSVGACTHTLYKVRALSQGV — within error, 0.486 ± 0.26
- SLQSSYEYINPRSLLHCSHL — lower, -1.44 ± 0.49
- VNYYSFLLVFPGLQLTREIN — higher, 6.38 ± 0.09
- SRFLARQLLKSASLRLFVET — within error, -0.159 ± 0.35
- FRGIGWAC — within error, 0.907 ± 0.47
- LSKPDLRTGSDDMS — within error, -0.297 ± 0.79
- IYYACL — higher, 6.401 ± 0.054
- SHLCHLGGSRRTQRVVEVSS — higher, 5.72 ± 0.064
- AIRADTDFDYTIEGSVDGGG — within error, -0.199 ± 0.63
- IYRSVTRKSERMCTVVGQVV — within error, -0.279 ± 0.48
- MVVNVGK — within error, -0.088 ± 0.17
- YCGVSLFSINTYSY — higher, 6.94 ± 0.05
- LDLMKSSLGCQKG — within error, -0.001 ± 0.23
- RTYVGRPENCKSWSYPMLMQ — higher, 4.805 ± 0.039
- HATSMCNWAVFIECFFFGKL — higher, 5.39 ± 0.065
- SARAICMAVLESSESDHNGV — within error, -0.299 ± 0.36
- ASLSAFWSLTIVRVLPDKQV — within error, 0.722 ± 0.43
- CSNADFDSRVFTDANMIFPK — higher, 4.01 ± 0.098
- AVWAEEGMPLMLGACRRTWG — higher, 1.25 ± 0.26
- AFNCT — within error, -0.684 ± 0.78
- RPVCKFL — within error, 0.275 ± 0.5
- GHVTYLVTAPHV — higher, 2.89 ± 0.14
- LSGVGFLDFRPLN — within error, 0.734 ± 0.81
- LLGGHYP — within error, 0.844 ± 0.52
- QLYLTVTNGFVRCTTASDVL — within error, 1.14 ± 0.47
- PQHYVMGYVCWDVSVVLRSP — higher, 2.91 ± 0.092
- YLTEALPDRSRYRSTSVMCV — higher, 1.86 ± 0.32
- EYHFCTWFRVDIPFVFHDVV — within error, -0.072 ± 1.1
- FTDCHWSDLLRSFVAWYDIV — within error, 0.918 ± 0.58
- YGTCFS — within error, 0.191 ± 0.47
- YCGRWELAVWY — within error, -0.679 ± 1.1
- KLYLVWPTCGDGCSFGLRAT — within error, -0.194 ± 0.24
- VLVKL — lower, -1.17 ± 0.48
- MWFWTLCIF — higher, 8.025 ± 0.027
- SPACLNS — higher, 4.58 ± 0.053
- LIFSAEMNLIVTDWTVRLSS — within error, 0.496 ± 0.8
- ENKPTRDLYSTTR — lower, -1.19 ± 0.54
- DNMWV — within error, 0.388 ± 0.54
- WFFYWMYRGYSINMIFEMLD — lower, -2.15 ± 0.49
- LVCSCIGHVHGVTH — higher, 7.125 ± 0.067
- RIMIIGKYVSRMVFGDSFWG — higher, 6.002 ± 0.049
- HDDRFSCECYSSDSPESQGL — within error, -0.105 ± 1.1
- TPTYLRYIVVIYL — higher, 2.41 ± 0.11
- NLKLPNRSSWVLPVQYRPFD — higher, 3.28 ± 0.053
- LISLTPRSSRPSNERNSSTL — higher, 1.63 ± 0.47
- IHNDCKLPMFVIMFS — higher, 6 ± 0.082
- LLLNLMLVHTSMTFVRIKLR — higher, 3.13 ± 0.12
- KCLFES — within error, 0.144 ± 0.77
- NRSLD — lower, -1.26 ± 0.54
- IYFGMDASKIGLLYVVGYSG — within error, 0.067 ± 0.63
- TFKFWCVTKETEQHVSYASR — higher, 4.54 ± 0.067
- FQWQLMVFSADEFQNMAHMI — within error, 0.182 ± 0.79
- HDVSVLYEPTAAGWNRLLQT — within error, 0.262 ± 0.54
- DLVMVSVSADVHSSNS — within error, 0.163 ± 0.5
- SYCLDDMRPWLHESTLSLSM — within error, -0.033 ± 0.3
- ALTPGYPSGARVP — within error, 0.307 ± 0.49
- ARYISCRKEFRYLESA — within error, 0.069 ± 0.37
- SELKMWYTDMVSTSKLDCIL — within error, -0.125 ± 0.46
- IDWIGPIYMHIAVMMVTVFQ — higher, 4.924 ± 0.033
- EALKVWERLCRLCSFWSYRK — higher, 7.871 ± 0.039
- ELQGYSNCGLEIGGTCHRGY — within error, -0.302 ± 0.61
- SLSNVLINCVLVFCW — higher, 6.53 ± 0.076
- GYCPLGAPCAGM — higher, 1.23 ± 0.2
- TIWRCFLT — within error, 0.685 ± 0.33
- TPTGSVLAYRVTISTKVVSL — within error, 1.09 ± 0.38
- VNIVVILFIVADIKWRRF — higher, 3.15 ± 0.12
- IYRTYYGINACLINLCMFDN — higher, 7.55 ± 0.078
- YGRGWHCTLYCIN — within error, 0.008 ± 0.8
- SASDTRGCCQHIPVSLGILT — within error, 0.119 ± 0.74
- VNLLFVVLCTMGSVSFKNSC — higher, 7.768 ± 0.036
- PASTREDGWFYCAHSVVSSQ — within error, 0.346 ± 0.54
- WRGSLTSPAPGET — higher, 1.87 ± 0.17
- NMGIFALGAEQD — within error, -0.039 ± 1.1
- SVWDYC — within error, -0.053 ± 0.39
- VLVCSANRLCNEPTIDRVLG — higher, 4.14 ± 0.057
- GNTGSGSDSKLYLAMP — within error, -0.076 ± 0.79
- DICAIIVHWCDDLNVAYWYL — within error, 0.058 ± 1
- FRMWGLC — within error, 0.43 ± 0.36
- RCEFSACMCGVCGAYKCMRF — higher, 5.3 ± 0.064
- HLMRLHY — lower, -1.78 ± 1.1
- SESMFLVKDSLTWTDVFLIG — within error, -1.07 ± 1.1
- FWSSCSLEVYRGFSFAH — higher, 3 ± 0.083
- LYFSNPWFMIKSRDMFVCIG — within error, 0.51 ± 0.18
- WGNNSYSPFASKYAVSQDMD — lower, -0.902 ± 0.62
- WSKVMCQWFSDIYSVTNFGC — higher, 2.76 ± 0.085
- VYFSCFSLWSSYDVIGRWSC — higher, 7.446 ± 0.036
- SATFWLFVGVENVADMSKVG — within error, 0.261 ± 0.4
- INVLFRVSPRISAVRNVCST — within error, -0.271 ± 0.36
- MSRSVVESQMVLSDDFWHQG — within error, -0.41 ± 0.22
- QFFMWTGGH — higher, 2.84 ± 0.1
- FVSHYHTAHTVEMASSQLTN — within error, 0.503 ± 0.38
- MLGCCPRVSVVPNTV — within error, -0.467 ± 0.45
- VLVIGSIVYVCLSKDCCFNV — higher, 9.543 ± 0.04
- MFERINALFNLQ — higher, 3.46 ± 0.14
- CRCTSIRGLKCIRW — within error, 0.767 ± 0.15
- TVSMNMRCCVECHYIKERYL — higher, 4.16 ± 0.051
- KYVVVYDSVYGFSVSGFSLW — within error, 0.777 ± 0.19
- IFNVHMVRF — higher, 9.317 ± 0.052
- AALCRMFWTAISYWCEWSLG — within error, 0.157 ± 0.55
- NMFSLWVYKLAMFWIY — within error, -0.701 ± 1.1
- PVPNYCSEII — within error, -1.1 ± 1
- PTRDKVATEGHGNGLIYNRF — within error, 0.306 ± 0.65
- GYWEAFFQLGASPYAGRSRG — within error, -0.13 ± 0.76
- HSLSFLMNSFMRYRSCLVVA — within error, -0.119 ± 0.26
- VNVIFHEYNVDAG — higher, 4.02 ± 0.12
- MRVDLKLVSAYLKSRFGPMF — within error, -0.341 ± 0.79
- LDMGCNRPEVYGNKCAMVSW — within error, 0.75 ± 0.21
- FPYIFIWFYGSVGLWRRETL — within error, 0.127 ± 0.79
- TSESSV — within error, -0.36 ± 0.64
- YDGSVKMGVFCGVRVYAPVS — within error, -0.191 ± 1.1
- INVYRPFYIVRHY — higher, 5.101 ± 0.044
- GLNCTIV — higher, 1.67 ± 0.32
- MFKQFVSLLHQGLFLSLSFD — within error, -0.01 ± 0.6
- SYGVLGDLASGTSRTID — lower, -1.25 ± 0.64
- RAYCAYTLR — higher, 5.94 ± 0.071
- LMLAYRLIFDDNRTGLSSAS — within error, 0.211 ± 0.5
- QRGRGERMFITQCLVDRMCF — within error, -0.117 ± 0.31
- LTFNLLSTLTFVRVLVPPLA — within error, 0.803 ± 0.34
- VWHLLRKSFSFR — within error, 0.619 ± 0.8
- GRVFEK — higher, 4.93 ± 0.077
- TCVALSYLVGGSALNS — within error, -0.818 ± 0.78
- HYRDPFVKRLMKPVGRPATL — within error, 0.192 ± 0.55
- RSVSTTHRCRTTLKTSNYCL — within error, 0.778 ± 0.67
- PMLEFWFMAWIEMFTYKKCC — higher, 1.8 ± 0.53
- LKPPLVAHHGNILCGFLGDG — lower, -1.39 ± 0.78
- VNYHLFVYAQWIVRKGFILL — lower, -0.78 ± 0.44
- KEVCEKTMFMCSWVK — within error, -0.809 ± 1.1
- NCVTHFMFNLDWSLWFEVCF — within error, -1.04 ± 1.1
- RRNNTGKHFWDWETREGFSM — within error, -0.931 ± 1.1
- VTMYPFRRIVGRQQLMAWLY — within error, 0.973 ± 0.38
- DLWTAWSRLHLDGG — within error, 0.431 ± 0.23
- KAAVMRHMSCCCYYHP — within error, 0.845 ± 0.66
- VSLGDYASAGFLMWIRLHVW — within error, -0.03 ± 0.56
